Read-outs that look alike come from different tables or passages of the source.
Legend:
[1] = target: T1, ALK-1/BMPR-2 receptor pair of the PathHunter U2Os dimerization cells (DiscoverX 93-0962C3) (UniProt P37023 22-503; Q13873 27-1038); assay: cell-based or functional assay
[2] = target: T1, ALK-1/BMPR-2 receptor pair of the …; assay: cell-based or functional assay; remark: listed apart in the source

T1 sequence (P37023 22-503, chain 1 of 2): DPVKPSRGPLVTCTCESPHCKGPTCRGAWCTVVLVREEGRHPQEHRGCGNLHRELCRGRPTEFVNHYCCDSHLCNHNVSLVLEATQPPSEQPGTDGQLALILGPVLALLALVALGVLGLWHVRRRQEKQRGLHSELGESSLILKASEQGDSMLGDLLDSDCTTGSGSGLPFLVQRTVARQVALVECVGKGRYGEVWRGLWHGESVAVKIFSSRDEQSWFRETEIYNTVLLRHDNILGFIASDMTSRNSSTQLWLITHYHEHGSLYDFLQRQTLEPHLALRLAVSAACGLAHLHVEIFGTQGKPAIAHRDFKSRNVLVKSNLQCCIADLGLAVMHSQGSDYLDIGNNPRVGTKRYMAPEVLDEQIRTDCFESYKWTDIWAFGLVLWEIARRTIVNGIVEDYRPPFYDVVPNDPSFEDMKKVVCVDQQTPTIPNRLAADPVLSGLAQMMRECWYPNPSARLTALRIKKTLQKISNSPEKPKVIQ
T1 sequence (Q13873 27-1038, chain 2 of 2): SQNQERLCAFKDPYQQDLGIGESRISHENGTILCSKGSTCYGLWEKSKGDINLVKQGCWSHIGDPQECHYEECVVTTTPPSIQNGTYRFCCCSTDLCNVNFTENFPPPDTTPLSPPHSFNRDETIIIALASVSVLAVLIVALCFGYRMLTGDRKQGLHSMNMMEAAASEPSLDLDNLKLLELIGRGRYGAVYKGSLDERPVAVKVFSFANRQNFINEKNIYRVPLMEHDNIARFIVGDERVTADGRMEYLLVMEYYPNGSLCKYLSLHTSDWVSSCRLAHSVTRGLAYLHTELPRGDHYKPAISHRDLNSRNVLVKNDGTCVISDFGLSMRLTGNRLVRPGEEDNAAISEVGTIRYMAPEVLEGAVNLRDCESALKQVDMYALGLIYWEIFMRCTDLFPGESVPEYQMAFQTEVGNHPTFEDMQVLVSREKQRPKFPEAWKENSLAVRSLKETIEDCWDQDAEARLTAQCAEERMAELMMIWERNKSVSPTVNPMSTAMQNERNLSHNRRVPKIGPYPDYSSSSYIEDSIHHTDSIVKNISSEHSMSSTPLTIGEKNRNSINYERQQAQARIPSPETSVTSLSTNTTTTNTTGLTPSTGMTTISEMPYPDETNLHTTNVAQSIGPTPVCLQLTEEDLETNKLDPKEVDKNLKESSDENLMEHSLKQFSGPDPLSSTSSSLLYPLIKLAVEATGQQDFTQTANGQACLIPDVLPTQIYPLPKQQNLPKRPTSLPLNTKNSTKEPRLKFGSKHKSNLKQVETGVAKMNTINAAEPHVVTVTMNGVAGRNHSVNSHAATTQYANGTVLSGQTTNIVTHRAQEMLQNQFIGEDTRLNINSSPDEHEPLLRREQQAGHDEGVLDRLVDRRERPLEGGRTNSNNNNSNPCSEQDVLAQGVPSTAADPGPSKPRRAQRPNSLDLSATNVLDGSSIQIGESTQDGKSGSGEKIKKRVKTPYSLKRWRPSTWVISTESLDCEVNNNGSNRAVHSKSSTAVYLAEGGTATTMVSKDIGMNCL

| Binder | % Emax BMP9 [1] [%] | Emax (RLU) [1] [RLU] | % Emax BMP9 [2] [%] |
| --- | --- | --- | --- |
| DGL879 (bispecific antibody) chain 1: not shown chain 2: EVQLLESGGGLVQPGGSLRLSCAASGFTFSDYYMTWIRQAPGKGLEWVSSISGGSTYYADSRKGRFTISRDNSENTLYLQMNSLRAEDTAVYYCARDFGVAGWFGQYGMDVWGQGTLVTVSSGGGGSGGGGSGGGGSQSVLTQPPSASGTPGQRVTISCTGSSSNIGAGYDVHWYQQLPGTAPKLLIYRSNQRPSGVPDRFSGSKSGTSASLAISGLRSEDEADYYCSSYAGLYNLVFGGGTKLTVLDKTHTCPPCPAPEAAGAPSVFLFPPKPKDTLMISRTPEVTCVVVDVSHEDPEVKFNWYVDGVEVHNAKTKPREEQYNSTYRVVSVLTVLHQDWLNGKEYKCKVSNKALPAPIEKTISKAKGQPREPQVCTLPPSRDELTKNQVSLSCAVKGFYPSDIAVEWESNGQPENNYKTTPPVLDSDGSFFLVSKLTVDKSRWQQGNVFSCSVMHEALHNHYTQKSLSLSPGWSHPQFEK | 71 | 1.81e+06 |  |
| DGL880 (bispecific antibody) chain 1: not shown chain 2: EVQLLESGGGLVQPGGSLRLSCAASGFTFSDYYMTWIRQAPGKGLEWVSSISGGSTYYADSRKGRFTISRDNSENTLYLQMNSLRAEDTAVYYCARDFGVAGWFGQYGMDVWGQGTLVTVSSGGGGSGGGGSGGGGSQSVLTQPPSASGTPGQRVTISCTGSASNIGAGYDVHWYQQLPGTAPKLLIYRSNQRPAGVPDRFSGSKSGTSASLAISGLRSEDEADYYCSSYAGLYNLVFGGGTKLTVLDKTHTCPPCPAPEAAGAPSVFLFPPKPKDTLMISRTPEVTCVVVDVSHEDPEVKFNWYVDGVEVHNAKTKPREEQYNSTYRVVSVLTVLHQDWLNGKEYKCKVSNKALPAPIEKTISKAKGQPREPQVCTLPPSRDELTKNQVSLSCAVKGFYPSDIAVEWESNGQPENNYKTTPPVLDSDGSFFLVSKLTVDKSRWQQGNVFSCSVMHEALHNHYTQKSLSLSPGWSHPQFEK | 66 | 1.68e+06 |  |
| DGL945 (bispecific antibody, human IgG1, lambda) heavy: EVQLLESGGGLVQPGGSLRLSCAASGFTFSDYYMTWIRQAPGKGLEWVSSISGGSTYYADSRKGRFTISRDNSENTLYLQMNSLRAEDTAVYYCARDFGVAGWFGQYGMDVWGQGTLVTVSSPLAPEVQLLESGGGLVQPGGSLRLSCAASGFTFSSYAMSWVRQAPGKGLEWVANINQDGSEKNYVDSMRGRFTISRDNSKNTLYLQMNSLRAEDTAVYYCAREFDYWGQGTLVTVSSASTKGPSVFPLAPSSKSTSGGTAALGCLVKDYFPEPVTVSWNSGALTSGVHTFPAVLQSSGLYSLSSVVTVPSSSLGTQTYICNVNHKPSNTKVDKKVEPKSCDKTHTCPPCPAPEAAGAPSVFLFPPKPKDTLYITREPEVTCVVVDVSHEDPEVKFNWYVDGVEVHNAKTKPREEQYNSTYRVVSVLTVLHQDWLNGKEYKCKVSNKALPAPIEKTISKAKGQPREPQVYTLPPSRDELTKNQVSLTCLVKGFYPSDIAVEWESNGQPENNYKTTPPVLDSDGSFFLYSKLTVDKSRWQQGNVFSCSVMHEALHNHYTQKSLSLSPG light: not shown |  |  | 78 |
| DGL947 (bispecific antibody, human IgG1, lambda) heavy: EVQLLESGGGLVQPGGSLRLSCAASGFTFSDYYMNWIRQAPGKGLEWVSSISGGSTYYADSVKGRFTISRDNSENTLYLQMNSLRAEDTAVYYCARDFGVAGWFGQFGMDVWGQGTLVTVSSPLAPEVQLLESGGGLVQPGGSLRLSCAASGFTFSSYWMSWVRQAPGKGLEWVANINQDGSEKYYVDSMRGRFTISRDNSKNTLYLQMNSLRAEDTAVYYCAREYDYWGQGTLVTVSSASTKGPSVFPLAPSSKSTSGGTAALGCLVKDYFPEPVTVSWNSGALTSGVHTFPAVLQSSGLYSLSSVVTVPSSSLGTQTYICNVNHKPSNTKVDKKVEPKSCDKTHTCPPCPAPEAAGAPSVFLFPPKPKDTLYITREPEVTCVVVDVSHEDPEVKFNWYVDGVEVHNAKTKPREEQYNSTYRVVSVLTVLHQDWLNGKEYKCKVSNKALPAPIEKTISKAKGQPREPQVYTLPPSRDELTKNQVSLTCLVKGFYPSDIAVEWESNGQPENNYKTTPPVLDSDGSFFLYSKLTVDKSRWQQGNVFSCSVMHEALHNHYTQKSLSLSPG light: not shown |  |  | 47 |
| DGL949 (bispecific antibody, human IgG1, lambda) heavy: EVQLLESGGGLVQPGGSLRLSCAASGFTFSDYYMNWIRQAPGKGLEWVSSISGGSTYYADSVKGRFTISRDNSENTLYLQMNSLRAEDTAVYYCARDFGVAGWFGYYGMDVWGQGTLVTVSSPLAPEVQLLESGGGLVQPGGSLRLSCAASGFTFSSYWMSWVRQAPGKGLEWVANIKQDGSEKNYVDSMRGRFTISRDNSKNTLYLQMNSLRAEDTAVYYCAREFDFWGQGTLVTVSSASTKGPSVFPLAPSSKSTSGGTAALGCLVKDYFPEPVTVSWNSGALTSGVHTFPAVLQSSGLYSLSSVVTVPSSSLGTQTYICNVNHKPSNTKVDKKVEPKSCDKTHTCPPCPAPEAAGAPSVFLFPPKPKDTLYITREPEVTCVVVDVSHEDPEVKFNWYVDGVEVHNAKTKPREEQYNSTYRVVSVLTVLHQDWLNGKEYKCKVSNKALPAPIEKTISKAKGQPREPQVYTLPPSRDELTKNQVSLTCLVKGFYPSDIAVEWESNGQPENNYKTTPPVLDSDGSFFLYSKLTVDKSRWQQGNVFSCSVMHEALHNHYTQKSLSLSPG light: not shown |  |  | 42 |
| DGL1146 (bispecific antibody, human IgG1, lambda) heavy: EVQLLESGGGLVQPGGSLRLSCAASGFTFSDYYMTWIRQAPGKGLEWVSSISGGSTYYADSRKGRFTISRDNSENTLYLQMNSLRAEDTAVYYCARDFGVAGWFGQYGMDVWGQGTLVTVSSPLAPEVQLLESGGGLVQPGGSLRLSCAASGFTFSSYAMSWVRQAPGKGLEWVANINQDGSEKNYVDSMRGRFTISRDNSKNTLYLQMNSLRAEDTAVYYCAREFDYWGQGTLVTVSSASTKGPSVFPLAPSSKSTSGGTAALGCLVKDYFPEPVTVSWNSGALTSGVHTFPAVLQSSGLYSLSSVVTVPSSSLGTQTYICNVNHKPSNTKVDKKVEPKSCDKTHTCPPCPAPEAAGAPSVFLFPPKPKDTLMISRTPEVTCVVVDVSHEDPEVKFNWYVDGVEVHNAKTKPREEQYNSTYRVVSVLTVLHQDWLNGKEYKCKVSNKALPAPIEKTISKAKGQPREPQVYTLPPSRDELTKNQVSLTCLVKGFYPSDIAVEWESNGQPENNYKTTPPVLDSDGSFFLYSKLTVDKSRWQQGNVFSCSVLHEALHSHYTQKSLSLSPG light: not shown |  |  | 78 |

From patent US20250002588A1 (DIAGONAL THERAPEUTICS, published 2025)
